In patent publication US20210087250A1, “PHARMACEUTICAL COMPOSITIONS FOR THE TRANSMUCOSAL DELIVERY OF THERAPEUTIC PEPTIDES AND PROTEINS” (CYPRUMED GMBH, priority 2018, published 2021):
Like-named read-outs stand apart in the source and are kept apart here. Each block holds one compound with its values, some of them ahead of it.

Columns and labels:
MDCK cells = experiment: Transepithelial electrical resistance (TEER) measurement; assay type: cell-based; settings: 2.5% and 5%
Experimental: The cellZscope from nanoAnalytics (Munster, Germany) was used for continuous evaluation of TEER as a surrogate parameter of tight junction functionality. MDCK cells were grown on 1.12 cm^2, 1.0 μm transparent filter inserts (ThinCerts™, Greiner Bio-One, Frickenhausen, Germany) with a seeding density of 100,000 cells per well. The medium was changed at cultivation days 3, 4 and 5. TEER measurements were performed on day 5 when cells reached a resistance of approximately 3,500 Ω·cm^2 starting with the replacement of the growth medium by an equivalent volume of KRB, pH 7.4 (500 μL apical, 1,500 μL basolateral) and cell incubation for 60 min. After this preincubation, 250 μL of KRB was removed from the insert, and the same volume of double-concentrated sample solution (Arginine HCl in KRB) was added to the 250 μL KRB inside the insert to reach the desired concentration. Afterwards, impedance measurements were performed for 180 min with a frequency range of 1 Hz to 100 kHz at 37° C. and 5% CO2 inside the incubator.
Subsequently, the cells were carefully washed with fresh KRB and incubated in medium, and TEER was monitored up to 24 h in 30 min time intervals after the start of the experiment to evaluate TEER recovery. The results (shown in FIG. 7) are given as the relative TEER reduction, defined as the percentage change of the starting value corrected by the baseline value.

[1] = test system: human nasal cell line RPMI 2650; experiment: Permeation of semaglutide through human nasal cells; assay type: in vitro ADME; settings: 0.5 mg/ml semaglutide in KRB with 5% arginine HCl versus KRB only
Experimental: All permeation studies were performed with RPMI 2650 models after 3 weeks of cultivation. Furthermore, the whole equipment was pre-warmed to 37° C. All steps were performed at 37° C. Prior to permeation, TEER values were measured using EVOM® combined with Endohm® Chamber from World Precision Instruments (WPI, Sarasota, Fla., US).
RPMI models were incubated for 60 min in KRB. Meanwhile sample solution containing excipients and active pharmaceutical ingredients were prepared. Subsequent to the incubation period, TEER values were determined again.
Before permeation, the KRB was removed from both sides of the RPMI models and 1200 μL KRB as acceptor volume were added. Then, 200 μL of the formulations (containing 0.5 mg/ml of Semaglutide each; reference formulation in KRB only, sample formulation in KRB containing 5% of arginine HCl) were applied to the apical surface of each RPMI model. With this step the permeation time was started. After two hours of exposition the acceptor was entirely removed, transferred to Eppendorf tubes and replaced by 1200 μL pre-warmed KRB. Four hours after starting the experiment the total amount of the acceptor was withdrawn again. During permeation the cell culture plates were shaken horizontally with 200 U/min at 37° C.

RPMI 2650 cells = experiment: CellTiter 96 AQueous One Solution cell proliferation cytotoxicity assay (MTS); assay type: cell-based, human; settings: 2.5% and 5.0% (m/V) in KRB, up to 120 min
Experimental: CellTiter 96® AQueous One Solution Cell proliferation Assay from Promega (Mannheim, Germany) is a colorimetric method for determining the number of viable cells in a cytotoxicity assay. The MTS tetrazolium compound is bioreduced by viable cells in a colored formazan product. The quantity of formazan is directly proportional to the number of living cells and can be measured by absorbance at 490 nm. This assay was performed to determinate cytotoxic effects of Arginine HCl in the concentrations of 2.5% and 5.0% (m/V) on RPMI 2650 cells.
RPMI 2650 cells were seeded onto a 96-well tissue culture test plate at a density of 60,000 cells per well for 24 h. Arginine HCl was dissolved in KRB. Medium was removed from the cells and replaced by 100 μL excipient solutions per well. Cells were incubated with excipient solutions for 0 min, 15 min, 30 min, 60 min and 120 min. Furthermore, cells were incubated with KRB, 1.0% Triton-X solution (V/V) for the same incubation periods as negative and positive controls, respectively. Bacitracin (BAC) served as reference.
The CellTiter 96® AQueous One Solution Cell proliferation Assay was carried out following the manufacturer's protocol. […]
After the incubation period the samples were analyzed immediately. Absorbance was recorded at 490 nm and measured by using a microplate reader Infinite® M Plex (Tecan, Switzerland).

desmopressin [2] = molecular target: desmopressin
desmopressin [3] = molecular target: desmopressin; remark: listed apart in the source
[4] = molecular target: T1, PTH(1-34) (Homo sapiens (Human)) (UniProt P01270)
T1 sequence (peptide): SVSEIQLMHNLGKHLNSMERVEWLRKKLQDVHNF

[5] = molecular target: T1, PTH(1-34) (Homo sapiens (Human)); remark: listed apart in the source
[6] = molecular target: T1, PTH(1-34) (Homo sapiens (Human)); remark: listed apart in the source

Intact desmopressin after 5 hours incubation (%) (desmopressin [2]): 7%
Compound: chymotrypsin (enzyme)

Intact PTH(1-34) [5]: 0%
Compound: pepsin (enzyme)

The next lines start with the compound.

Compound: Cl.N=C(N)NCCC[C@H](N)C(=O)O [arginine HCl, arginine hydrochloride]
TEER (MDCK cells; 180 min): strong decrease in TEER
reversibility of tight junction opening (TEER recovery) (MDCK cells; up to 24 h): fully reversible
permeation of semaglutide across human nasal cells [1]: improves the permeation of semaglutide
cell viability (RPMI 2650 cells): Only a minor decrease in cell viability

Compound: pancreatin (pool or library)
Peptide recovery (desmopressin [3]): 20%
% intact PTH(1-34) [4]: 0%

Compound: trypsin (enzyme)
% intact Adalimumab (adalimumab): 82%
Intact PTH(1-34) [6]: 0%
